According to patent CN111234026A (BEIJING CHEST HOSPITAL CAPITAL MEDICAL UNIV; BEIJING …, dated 2020):

Assays:
Experiment in all cases: indirect ELISA, recombinant protein coated on the plate
结核分枝杆菌特异性重组蛋白EspC = biological target: T1, 结核分枝杆菌特异性重组蛋白EspC (Mycobacterium tuberculosis, UniProt P9WJD7 1-103)
T1 sequence (looked up): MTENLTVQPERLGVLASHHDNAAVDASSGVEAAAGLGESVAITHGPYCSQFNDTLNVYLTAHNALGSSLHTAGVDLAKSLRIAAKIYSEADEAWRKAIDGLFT

结核分枝杆菌特异性重组蛋白38KD = biological target: T2, 结核分枝杆菌特异性重组蛋白38KD (Mycobacterium tuberculosis, UniProt P9WGU1 24-374)
T2 sequence (looked up): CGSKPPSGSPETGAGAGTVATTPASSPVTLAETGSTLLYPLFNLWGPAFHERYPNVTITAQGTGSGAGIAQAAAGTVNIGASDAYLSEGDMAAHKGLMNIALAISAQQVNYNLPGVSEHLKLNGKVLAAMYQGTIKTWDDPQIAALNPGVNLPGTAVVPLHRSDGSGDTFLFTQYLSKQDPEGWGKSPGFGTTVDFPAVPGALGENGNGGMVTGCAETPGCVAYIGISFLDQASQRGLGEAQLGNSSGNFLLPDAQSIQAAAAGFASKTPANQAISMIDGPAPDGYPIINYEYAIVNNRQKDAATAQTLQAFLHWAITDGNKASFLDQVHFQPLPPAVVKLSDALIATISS

结核分枝杆菌特异性重组蛋白Mtb81 = 结核分枝杆菌特异性重组蛋白Mtb81 (Mycobacterium tuberculosis, UniProt P9WK17 1-741)
结核分枝杆菌特异性重组蛋白CFP10 = biological target: T3, 结核分枝杆菌特异性重组蛋白CFP10 (Mycobacterium tuberculosis, UniProt P9WNK5 1-100)
T3 sequence (looked up): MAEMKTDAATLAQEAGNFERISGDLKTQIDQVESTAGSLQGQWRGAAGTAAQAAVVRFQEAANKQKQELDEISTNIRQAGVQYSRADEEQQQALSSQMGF

结核分枝杆菌特异性重组蛋白MPT32 = biological target: T4, 结核分枝杆菌特异性重组蛋白MPT32 (Mycobacterium tuberculosis, UniProt P9WIR7 40-325)
T4 sequence (looked up): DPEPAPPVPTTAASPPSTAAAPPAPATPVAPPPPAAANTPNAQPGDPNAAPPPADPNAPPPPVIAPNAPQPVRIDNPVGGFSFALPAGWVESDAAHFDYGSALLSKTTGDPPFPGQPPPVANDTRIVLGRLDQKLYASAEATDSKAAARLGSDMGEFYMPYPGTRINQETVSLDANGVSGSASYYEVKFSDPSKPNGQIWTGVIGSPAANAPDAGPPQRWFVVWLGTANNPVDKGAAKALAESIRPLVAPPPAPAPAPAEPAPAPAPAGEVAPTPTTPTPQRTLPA

结核分枝杆菌特异性重组蛋白MPT64 = biological target: T5, 结核分枝杆菌特异性重组蛋白MPT64 (Mycobacterium tuberculosis, UniProt P9WIN9 24-228)
T5 sequence (looked up): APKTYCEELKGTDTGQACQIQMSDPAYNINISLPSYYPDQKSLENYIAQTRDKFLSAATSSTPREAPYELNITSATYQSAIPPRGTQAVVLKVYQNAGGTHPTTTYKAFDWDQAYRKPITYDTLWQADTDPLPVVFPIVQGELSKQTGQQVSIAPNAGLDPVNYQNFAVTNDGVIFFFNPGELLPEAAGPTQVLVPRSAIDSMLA

结核分枝杆菌特异性重组蛋白Mtb81, sequence (P9WK17 whole entry): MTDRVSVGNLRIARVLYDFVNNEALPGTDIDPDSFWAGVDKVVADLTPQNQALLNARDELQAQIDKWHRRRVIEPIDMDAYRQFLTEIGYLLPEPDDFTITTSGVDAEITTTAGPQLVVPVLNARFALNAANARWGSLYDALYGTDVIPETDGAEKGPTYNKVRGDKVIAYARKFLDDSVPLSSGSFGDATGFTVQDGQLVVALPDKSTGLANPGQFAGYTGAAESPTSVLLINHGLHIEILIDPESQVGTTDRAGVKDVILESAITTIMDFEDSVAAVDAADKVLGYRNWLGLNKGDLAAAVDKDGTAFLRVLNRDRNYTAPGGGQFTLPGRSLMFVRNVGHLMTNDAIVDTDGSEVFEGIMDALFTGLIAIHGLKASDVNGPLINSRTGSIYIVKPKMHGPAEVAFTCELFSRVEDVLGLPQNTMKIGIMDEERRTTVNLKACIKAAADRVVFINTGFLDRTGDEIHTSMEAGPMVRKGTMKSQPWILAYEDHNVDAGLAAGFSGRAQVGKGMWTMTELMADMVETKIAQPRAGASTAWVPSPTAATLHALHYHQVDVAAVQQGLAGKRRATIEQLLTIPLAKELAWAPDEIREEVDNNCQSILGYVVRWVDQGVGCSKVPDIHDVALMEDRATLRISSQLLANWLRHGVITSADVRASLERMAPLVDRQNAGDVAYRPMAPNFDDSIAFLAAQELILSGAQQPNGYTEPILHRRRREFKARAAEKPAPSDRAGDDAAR

B1: BJRbL20 (antibody, V domains shown)
VH: QSVEESGGRLVTPGGSLTLTCTVSGIDLSSYDMGWVRQAPGKGLEWIGNIWSNGFTDYASWVNGRFTISKSSSTKMDLKMTSLTTEDTATYFCARGSSGYVGDIWGPGTLVTVSS
VL: DPVLTQTASSVSAAVGGTVTINCQASQSVYGNNELSWFQQKPGQPPKLLIYYASTLASGVPSRFKGSGSGTQFTLTISDLECDDAAIYYCQGGYLGNRAFGGGTEVVVKG
notes: also called 兔抗LAM单克隆抗体BJRbL20; LAM抗体
B1: no binding (tested: protein coated at 5μg/ml) (结核分枝杆菌特异性重组蛋白EspC); no binding (tested: protein coated at 5μg/ml) (结核分枝杆菌特异性重组蛋白38KD); no binding (tested: protein coated at 5μg/ml) (结核分枝杆菌特异性重组蛋白Mtb81). B1: no binding (tested: protein coated at 5μg/ml) (结核分枝杆菌特异性重组蛋白CFP10); no binding (tested: protein coated at 5μg/ml) (结核分枝杆菌特异性重组蛋白MPT32); no binding (tested: protein coated at 5μg/ml) (结核分枝杆菌特异性重组蛋白MPT64).

B2: BJRbL52 (antibody, V domains shown)
VH: QSVEESGGRLVTPGTSLTLTCTVSGFSLSSYDMGWVRQAPGKGLEWIGNIWSNGFTDYASWVNGRFTISKSSSTKMDLKMTSLTTEDTATYFCARGSSGYVGDIWGPGTLVTVSS
VL: DPVLTQTASSVSAAVGGTVTINCQASQSVYGNNELSWYQQKSGQPPKLLIYKASTLASGVPSRFKASGSGTQFTLTISDLECDDAAIYYCQGGYWGNRAFGGGTEVVVKG
notes: also called 兔抗LAM单克隆抗体BJRbL52; LAM抗体
B2: no binding (tested: protein coated at 5μg/ml) (结核分枝杆菌特异性重组蛋白EspC); no binding (tested: protein coated at 5μg/ml) (结核分枝杆菌特异性重组蛋白38KD); no binding (tested: protein coated at 5μg/ml) (结核分枝杆菌特异性重组蛋白Mtb81). B2: no binding (tested: protein coated at 5μg/ml) (结核分枝杆菌特异性重组蛋白CFP10); no binding (tested: protein coated at 5μg/ml) (结核分枝杆菌特异性重组蛋白MPT32); no binding (tested: protein coated at 5μg/ml) (结核分枝杆菌特异性重组蛋白MPT64).

B3: BJRbL76 (antibody, V domains shown)
VH: QSVEESGGRLVTPGTPLTLTCTVSGFSLSTYAITWVRQAPGKGLEWIGYIWGGGNTDYASWAKGRFTISKTSTTVDLKITSPTIEDTATYFCGRNDLGYGSDIWGPGTLVTVSS
VL: DVVMTQTPSSKSVPVGDTVTINCQASQSVWGNKWLSWYQQKPGQPPKLLIYQASKLASGVPSRFSGSGSGTQFTLTISDVVCDDAATYYCGGHGTGNNDNPLGGGTMVEIKG
notes: also called 兔抗LAM单克隆抗体BJRbL76; LAM抗体
B3: no binding (tested: protein coated at 5μg/ml) (结核分枝杆菌特异性重组蛋白EspC); no binding (tested: protein coated at 5μg/ml) (结核分枝杆菌特异性重组蛋白38KD); no binding (tested: protein coated at 5μg/ml) (结核分枝杆菌特异性重组蛋白Mtb81). B3: no binding (tested: protein coated at 5μg/ml) (结核分枝杆菌特异性重组蛋白CFP10); no binding (tested: protein coated at 5μg/ml) (结核分枝杆菌特异性重组蛋白MPT32); no binding (tested: protein coated at 5μg/ml) (结核分枝杆菌特异性重组蛋白MPT64).
